# Where no end group is shown, it is not given here.
# T1: PRLHR (UniProt P49683 1-370)
# T1 sequence (looked up): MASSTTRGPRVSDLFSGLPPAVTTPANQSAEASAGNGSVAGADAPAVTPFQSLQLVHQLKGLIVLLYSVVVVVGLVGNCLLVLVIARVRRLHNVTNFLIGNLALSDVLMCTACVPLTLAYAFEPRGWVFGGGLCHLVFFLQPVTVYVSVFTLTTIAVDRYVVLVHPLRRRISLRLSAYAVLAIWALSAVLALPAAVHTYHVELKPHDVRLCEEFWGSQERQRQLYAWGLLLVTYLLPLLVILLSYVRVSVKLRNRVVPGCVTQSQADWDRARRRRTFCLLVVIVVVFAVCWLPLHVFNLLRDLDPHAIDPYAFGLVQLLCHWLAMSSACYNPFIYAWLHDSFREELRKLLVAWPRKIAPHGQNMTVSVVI
# T2: GIPR (UniProt P48546 22-466)
# T2 sequence (looked up): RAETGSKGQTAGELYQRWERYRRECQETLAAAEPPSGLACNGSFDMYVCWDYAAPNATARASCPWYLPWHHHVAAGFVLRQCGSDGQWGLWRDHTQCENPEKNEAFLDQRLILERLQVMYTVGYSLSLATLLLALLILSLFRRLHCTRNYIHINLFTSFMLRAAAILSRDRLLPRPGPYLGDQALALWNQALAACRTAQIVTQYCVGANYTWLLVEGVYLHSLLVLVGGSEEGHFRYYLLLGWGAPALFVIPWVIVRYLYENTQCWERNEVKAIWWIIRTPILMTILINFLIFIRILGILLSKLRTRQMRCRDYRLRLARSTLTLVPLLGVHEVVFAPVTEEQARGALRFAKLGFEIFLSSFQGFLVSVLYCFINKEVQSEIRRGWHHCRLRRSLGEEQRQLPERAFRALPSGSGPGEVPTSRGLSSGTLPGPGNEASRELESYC
# T3: CRHR1 (UniProt P34998 24-415, limits assumed)
# T3 sequence (looked up): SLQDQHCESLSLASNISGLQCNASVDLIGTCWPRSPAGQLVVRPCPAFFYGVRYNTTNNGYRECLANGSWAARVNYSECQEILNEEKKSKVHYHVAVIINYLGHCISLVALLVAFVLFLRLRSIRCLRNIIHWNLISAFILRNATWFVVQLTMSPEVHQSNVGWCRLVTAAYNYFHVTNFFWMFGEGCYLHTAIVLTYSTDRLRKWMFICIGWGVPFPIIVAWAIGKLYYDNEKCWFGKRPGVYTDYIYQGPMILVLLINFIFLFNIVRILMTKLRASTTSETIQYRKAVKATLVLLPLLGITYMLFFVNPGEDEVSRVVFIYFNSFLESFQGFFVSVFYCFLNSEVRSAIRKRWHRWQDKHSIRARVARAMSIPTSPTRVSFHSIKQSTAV
# T4: CCKBR (UniProt P32239 1-447)
# T4 sequence (looked up): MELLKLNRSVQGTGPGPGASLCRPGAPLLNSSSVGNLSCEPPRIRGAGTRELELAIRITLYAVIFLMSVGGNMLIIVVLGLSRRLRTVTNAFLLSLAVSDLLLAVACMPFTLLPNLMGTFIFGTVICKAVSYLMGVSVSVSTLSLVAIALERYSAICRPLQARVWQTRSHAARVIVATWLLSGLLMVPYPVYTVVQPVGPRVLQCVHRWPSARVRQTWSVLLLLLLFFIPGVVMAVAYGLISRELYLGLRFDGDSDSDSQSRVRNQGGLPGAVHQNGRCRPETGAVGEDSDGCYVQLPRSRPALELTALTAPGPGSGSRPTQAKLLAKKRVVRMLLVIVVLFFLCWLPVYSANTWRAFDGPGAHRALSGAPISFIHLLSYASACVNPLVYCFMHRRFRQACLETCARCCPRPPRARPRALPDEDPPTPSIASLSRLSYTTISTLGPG
# T5: CRHR2 (UniProt Q13324 1-411, limits assumed)
# T5 sequence (looked up): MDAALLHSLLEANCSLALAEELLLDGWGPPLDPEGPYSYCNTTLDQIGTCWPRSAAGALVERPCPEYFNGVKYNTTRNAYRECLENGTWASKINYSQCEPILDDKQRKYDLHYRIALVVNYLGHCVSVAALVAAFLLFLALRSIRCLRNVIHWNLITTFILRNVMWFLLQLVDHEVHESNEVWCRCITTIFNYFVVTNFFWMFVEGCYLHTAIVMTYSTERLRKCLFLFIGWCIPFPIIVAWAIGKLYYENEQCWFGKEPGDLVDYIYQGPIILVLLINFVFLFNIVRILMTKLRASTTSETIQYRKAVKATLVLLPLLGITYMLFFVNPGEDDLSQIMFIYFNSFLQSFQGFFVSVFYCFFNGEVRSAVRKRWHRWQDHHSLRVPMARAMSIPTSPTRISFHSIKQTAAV
# T6: EDG7 (UniProt Q9UBY5 1-353)
# T6 sequence (looked up): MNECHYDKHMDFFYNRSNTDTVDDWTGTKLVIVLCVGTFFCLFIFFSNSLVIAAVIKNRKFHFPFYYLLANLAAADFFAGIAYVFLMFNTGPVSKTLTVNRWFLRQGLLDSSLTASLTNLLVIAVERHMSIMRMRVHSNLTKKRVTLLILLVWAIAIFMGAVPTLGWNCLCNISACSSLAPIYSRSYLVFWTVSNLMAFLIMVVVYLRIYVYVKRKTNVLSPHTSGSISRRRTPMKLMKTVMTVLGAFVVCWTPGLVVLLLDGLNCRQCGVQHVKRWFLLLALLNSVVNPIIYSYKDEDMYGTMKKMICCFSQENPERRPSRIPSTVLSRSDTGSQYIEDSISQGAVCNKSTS
# Experiments:
# Assay in all cases: cell-based or functional assay
# PRLHR = target: T1, PRLHR
# GIPR = target: T2, GIPR
# CRHR1 = target: T3, CRHR1
# CCKBR = target: T4, CCKBR
# ADRB2 = ADRB2 (UniProt P07550 1-413)
# CRHR2 = target: T5, CRHR2
# EDG7 = target: T6, EDG7
binder,measurement,setting,value
"QATVGDVNTDRPGLLDLK (also: synthesised on Rink amide resin, C-terminal amide not given here outright) [octadecaneuropeptide (ODN)]","% Activity, arrestin, antagonist mode, 2.5 uM",PRLHR,-22.2%
same,"% Activity, arrestin, antagonist mode, 2.5 uM",GIPR,-18.9%
same,"% Activity, arrestin, antagonist mode, 2.5 uM",CRHR1,5.4%
same,"% Activity, arrestin, antagonist mode, 2.5 uM",CCKBR,-7.8%
same,"% Activity, arrestin, antagonist mode, 2.5 uM",ADRB2,-11.7%
same,"% Activity, arrestin, antagonist mode, 2.5 uM",CRHR2,-8.6%
same,"% Activity, arrestin, antagonist mode, 2.5 uM",EDG7,5%
